Here are results for six proteins from publication PMC6210743, “Starch Synthesis in Ostreococcus tauri: The Starch-Binding Domains of Starch Synthase III-B Are Essential for Catalytic Activity” (Frontiers in Plant Science, 2018).

Substrate in the series: Nc1ncnc2c1ncn2[C@@H]1O[C@H](COP(=O)(O)OP(=O)(O)O[C@H]2O[C@H](CO)[C@@H](O)[C@H](O)[C@H]2O)[C@@H](O)[C@H]1O
Description: Pi release by alkaline phosphatase from ADP, Malachite Green assay. It is filed as biochemical, Ostreococcus tauri. To be noted: 2 mg/ml glycogen as acceptor, 50 mM BICINE pH 8.0, 30°C. The source says: Pi release by alkaline phosphatase from ADP, Malachite Green assay on OsttaSSIII-B

As usually defined, the Vmax is the rate approached at saturating substrate.

B1: OsttaSSIII-B (Ostreococcus tauri) (protein)
chain: ASVETQLDGTDHPRVFTVPATPVAGGALRVFADVERADALRSASGWKLIGGYNAWRVGEFTKDMIKVKGTSWVYADVNVDERAFSMDFVFKGDGEAYEKDEGQDFSLTVDFGPTPEEFEEMLKVIEMENKARDEANAFIDGQMARARESGAGASIEKYGRVICKTASGKPGVAGSTERVMWNKAYNPIGGDTDKLVLHVGFNGWCAGVEAKFDLVRATGEIKDENNDWWVADVPLRADAYLLDFVVSDVEESAWDNNEQANFTLAVETSDEEWAVLRELKFEEIRAMAFKKELAEKERKERRAKADAEAKAKAIEVGLKQQSYIIHTEPKVPQVGKPLKVFYNKNNTNLSWSDEIYMTGGFNRWSHEAAIEPVKMTPPGAGEEFFTVTVPRVPTDAWMVDFVFSSGVGEGAQYDNKSGRDYHLPTRGSTASKPPLHVCHIAVEMAPIAKVGGLADVVTAIGRAIQDNGHLVEIILPKYQFFNNSVLLGGKEYETHFDWAGTTIRVEKCKVEGLQCFFIEPQNNMFQTDSVYGRNDDAHRFNFFCNAALEFLVRTARQPDILHCHDWSSAEVARAYWEHYHHNGLTKPKVAFTIHNMNYGQAKLGEAVHHSQVATTVSPSYAGEVRGSPVIGNNGHKFTGVRNGIDPEIWDPETDIFVPVKYNADNQEEGKAAARAELRQRAGMTGWDDKPIVGVVSRLTAQKGVHLIKHAAHHTLSRGGQFVLLGSAPDPKIQGEFNGLANQLGGEDTGFFFAFDEPLSHLMYAGCDVILVPSMFEPCGLTQMISMRYGAVPVVRATGGLRDTVFDVDNEKERAAWEVGGSTDWKTDGDMTNGFSFEGTDEGSLNYALDRCLDAFYNDREWFRSLQKRVMLQDWSWNRPANDYEELYYKMIGR
As for B1, where the note is “nH 1.16”, the K0.5 is 0.09 ± 0.02 mM and the maximum rate (Vmax) was 1.65 µmol/min/mg.

B2: OsttaSSIII-B (Ostreococcus tauri; F138A) (protein)
chain: ASVETQLDGTDHPRVFTVPATPVAGGALRVFADVERADALRSASGWKLIGGYNAWRVGEFTKDMIKVKGTSWVYADVNVDERAFSMDAVFKGDGEAYEKDEGQDFSLTVDFGPTPEEFEEMLKVIEMENKARDEANAFIDGQMARARESGAGASIEKYGRVICKTASGKPGVAGSTERVMWNKAYNPIGGDTDKLVLHVGFNGWCAGVEAKFDLVRATGEIKDENNDWWVADVPLRADAYLLDFVVSDVEESAWDNNEQANFTLAVETSDEEWAVLRELKFEEIRAMAFKKELAEKERKERRAKADAEAKAKAIEVGLKQQSYIIHTEPKVPQVGKPLKVFYNKNNTNLSWSDEIYMTGGFNRWSHEAAIEPVKMTPPGAGEEFFTVTVPRVPTDAWMVDFVFSSGVGEGAQYDNKSGRDYHLPTRGSTASKPPLHVCHIAVEMAPIAKVGGLADVVTAIGRAIQDNGHLVEIILPKYQFFNNSVLLGGKEYETHFDWAGTTIRVEKCKVEGLQCFFIEPQNNMFQTDSVYGRNDDAHRFNFFCNAALEFLVRTARQPDILHCHDWSSAEVARAYWEHYHHNGLTKPKVAFTIHNMNYGQAKLGEAVHHSQVATTVSPSYAGEVRGSPVIGNNGHKFTGVRNGIDPEIWDPETDIFVPVKYNADNQEEGKAAARAELRQRAGMTGWDDKPIVGVVSRLTAQKGVHLIKHAAHHTLSRGGQFVLLGSAPDPKIQGEFNGLANQLGGEDTGFFFAFDEPLSHLMYAGCDVILVPSMFEPCGLTQMISMRYGAVPVVRATGGLRDTVFDVDNEKERAAWEVGGSTDWKTDGDMTNGFSFEGTDEGSLNYALDRCLDAFYNDREWFRSLQKRVMLQDWSWNRPANDYEELYYKMIGR
Regarding B2, for the setting “nH 1.06”, the K0.5 is 0.07 ± 0.02 mM and the Vmax stood at 0.23 µmol/min/mg.

B3: OsttaSSIII-B (Ostreococcus tauri; Y147A) (protein)
chain: ASVETQLDGTDHPRVFTVPATPVAGGALRVFADVERADALRSASGWKLIGGYNAWRVGEFTKDMIKVKGTSWVYADVNVDERAFSMDFVFKGDGEAAEKDEGQDFSLTVDFGPTPEEFEEMLKVIEMENKARDEANAFIDGQMARARESGAGASIEKYGRVICKTASGKPGVAGSTERVMWNKAYNPIGGDTDKLVLHVGFNGWCAGVEAKFDLVRATGEIKDENNDWWVADVPLRADAYLLDFVVSDVEESAWDNNEQANFTLAVETSDEEWAVLRELKFEEIRAMAFKKELAEKERKERRAKADAEAKAKAIEVGLKQQSYIIHTEPKVPQVGKPLKVFYNKNNTNLSWSDEIYMTGGFNRWSHEAAIEPVKMTPPGAGEEFFTVTVPRVPTDAWMVDFVFSSGVGEGAQYDNKSGRDYHLPTRGSTASKPPLHVCHIAVEMAPIAKVGGLADVVTAIGRAIQDNGHLVEIILPKYQFFNNSVLLGGKEYETHFDWAGTTIRVEKCKVEGLQCFFIEPQNNMFQTDSVYGRNDDAHRFNFFCNAALEFLVRTARQPDILHCHDWSSAEVARAYWEHYHHNGLTKPKVAFTIHNMNYGQAKLGEAVHHSQVATTVSPSYAGEVRGSPVIGNNGHKFTGVRNGIDPEIWDPETDIFVPVKYNADNQEEGKAAARAELRQRAGMTGWDDKPIVGVVSRLTAQKGVHLIKHAAHHTLSRGGQFVLLGSAPDPKIQGEFNGLANQLGGEDTGFFFAFDEPLSHLMYAGCDVILVPSMFEPCGLTQMISMRYGAVPVVRATGGLRDTVFDVDNEKERAAWEVGGSTDWKTDGDMTNGFSFEGTDEGSLNYALDRCLDAFYNDREWFRSLQKRVMLQDWSWNRPANDYEELYYKMIGR
In the case of B3, for the setting “nH 0.78”, the K0.5 is 0.07 ± 0.01 mM and the Vmax is 1.1 µmol/min/mg.

B4: OsttaSSIII-B (Ostreococcus tauri; W279A) (protein)
chain: ASVETQLDGTDHPRVFTVPATPVAGGALRVFADVERADALRSASGWKLIGGYNAWRVGEFTKDMIKVKGTSWVYADVNVDERAFSMDFVFKGDGEAYEKDEGQDFSLTVDFGPTPEEFEEMLKVIEMENKARDEANAFIDGQMARARESGAGASIEKYGRVICKTASGKPGVAGSTERVMWNKAYNPIGGDTDKLVLHVGFNGWCAGVEAKFDLVRATGEIKDENNDWAVADVPLRADAYLLDFVVSDVEESAWDNNEQANFTLAVETSDEEWAVLRELKFEEIRAMAFKKELAEKERKERRAKADAEAKAKAIEVGLKQQSYIIHTEPKVPQVGKPLKVFYNKNNTNLSWSDEIYMTGGFNRWSHEAAIEPVKMTPPGAGEEFFTVTVPRVPTDAWMVDFVFSSGVGEGAQYDNKSGRDYHLPTRGSTASKPPLHVCHIAVEMAPIAKVGGLADVVTAIGRAIQDNGHLVEIILPKYQFFNNSVLLGGKEYETHFDWAGTTIRVEKCKVEGLQCFFIEPQNNMFQTDSVYGRNDDAHRFNFFCNAALEFLVRTARQPDILHCHDWSSAEVARAYWEHYHHNGLTKPKVAFTIHNMNYGQAKLGEAVHHSQVATTVSPSYAGEVRGSPVIGNNGHKFTGVRNGIDPEIWDPETDIFVPVKYNADNQEEGKAAARAELRQRAGMTGWDDKPIVGVVSRLTAQKGVHLIKHAAHHTLSRGGQFVLLGSAPDPKIQGEFNGLANQLGGEDTGFFFAFDEPLSHLMYAGCDVILVPSMFEPCGLTQMISMRYGAVPVVRATGGLRDTVFDVDNEKERAAWEVGGSTDWKTDGDMTNGFSFEGTDEGSLNYALDRCLDAFYNDREWFRSLQKRVMLQDWSWNRPANDYEELYYKMIGR
B4: where the note is “nH 0.88”, the K0.5 is given as 0.38 ± 0.11 mM and the Vmax was 0.42 µmol/min/mg.

B5: OsttaSSIII-B (Ostreococcus tauri; W304A) (protein)
chain: ASVETQLDGTDHPRVFTVPATPVAGGALRVFADVERADALRSASGWKLIGGYNAWRVGEFTKDMIKVKGTSWVYADVNVDERAFSMDFVFKGDGEAYEKDEGQDFSLTVDFGPTPEEFEEMLKVIEMENKARDEANAFIDGQMARARESGAGASIEKYGRVICKTASGKPGVAGSTERVMWNKAYNPIGGDTDKLVLHVGFNGWCAGVEAKFDLVRATGEIKDENNDWWVADVPLRADAYLLDFVVSDVEESAADNNEQANFTLAVETSDEEWAVLRELKFEEIRAMAFKKELAEKERKERRAKADAEAKAKAIEVGLKQQSYIIHTEPKVPQVGKPLKVFYNKNNTNLSWSDEIYMTGGFNRWSHEAAIEPVKMTPPGAGEEFFTVTVPRVPTDAWMVDFVFSSGVGEGAQYDNKSGRDYHLPTRGSTASKPPLHVCHIAVEMAPIAKVGGLADVVTAIGRAIQDNGHLVEIILPKYQFFNNSVLLGGKEYETHFDWAGTTIRVEKCKVEGLQCFFIEPQNNMFQTDSVYGRNDDAHRFNFFCNAALEFLVRTARQPDILHCHDWSSAEVARAYWEHYHHNGLTKPKVAFTIHNMNYGQAKLGEAVHHSQVATTVSPSYAGEVRGSPVIGNNGHKFTGVRNGIDPEIWDPETDIFVPVKYNADNQEEGKAAARAELRQRAGMTGWDDKPIVGVVSRLTAQKGVHLIKHAAHHTLSRGGQFVLLGSAPDPKIQGEFNGLANQLGGEDTGFFFAFDEPLSHLMYAGCDVILVPSMFEPCGLTQMISMRYGAVPVVRATGGLRDTVFDVDNEKERAAWEVGGSTDWKTDGDMTNGFSFEGTDEGSLNYALDRCLDAFYNDREWFRSLQKRVMLQDWSWNRPANDYEELYYKMIGR
In the case of B5, where the note is “nH 0.80”, the K0.5 turned out to be 0.15 ± 0.03 mM and the Vmax came to 0.31 µmol/min/mg.

B6: OsttaSSIII-B (Ostreococcus tauri; W122A/Y124A) (protein)
chain: ASVETQLDGTDHPRVFTVPATPVAGGALRVFADVERADALRSASGWKLIGGYNAWRVGEFTKDMIKVKGTSAVAADVNVDERAFSMDFVFKGDGEAYEKDEGQDFSLTVDFGPTPEEFEEMLKVIEMENKARDEANAFIDGQMARARESGAGASIEKYGRVICKTASGKPGVAGSTERVMWNKAYNPIGGDTDKLVLHVGFNGWCAGVEAKFDLVRATGEIKDENNDWWVADVPLRADAYLLDFVVSDVEESAWDNNEQANFTLAVETSDEEWAVLRELKFEEIRAMAFKKELAEKERKERRAKADAEAKAKAIEVGLKQQSYIIHTEPKVPQVGKPLKVFYNKNNTNLSWSDEIYMTGGFNRWSHEAAIEPVKMTPPGAGEEFFTVTVPRVPTDAWMVDFVFSSGVGEGAQYDNKSGRDYHLPTRGSTASKPPLHVCHIAVEMAPIAKVGGLADVVTAIGRAIQDNGHLVEIILPKYQFFNNSVLLGGKEYETHFDWAGTTIRVEKCKVEGLQCFFIEPQNNMFQTDSVYGRNDDAHRFNFFCNAALEFLVRTARQPDILHCHDWSSAEVARAYWEHYHHNGLTKPKVAFTIHNMNYGQAKLGEAVHHSQVATTVSPSYAGEVRGSPVIGNNGHKFTGVRNGIDPEIWDPETDIFVPVKYNADNQEEGKAAARAELRQRAGMTGWDDKPIVGVVSRLTAQKGVHLIKHAAHHTLSRGGQFVLLGSAPDPKIQGEFNGLANQLGGEDTGFFFAFDEPLSHLMYAGCDVILVPSMFEPCGLTQMISMRYGAVPVVRATGGLRDTVFDVDNEKERAAWEVGGSTDWKTDGDMTNGFSFEGTDEGSLNYALDRCLDAFYNDREWFRSLQKRVMLQDWSWNRPANDYEELYYKMIGR
For the protein B6, where the note is “nH 0.94”, the K0.5 came to 0.11 ± 0.01 mM and the Vmax came out at 0.57 µmol/min/mg.
